Reference: US6866854

Target: p53 (UniProt P04637)
Experiment: cell-based or functional assay

Sequence of p53 (P04637 whole entry): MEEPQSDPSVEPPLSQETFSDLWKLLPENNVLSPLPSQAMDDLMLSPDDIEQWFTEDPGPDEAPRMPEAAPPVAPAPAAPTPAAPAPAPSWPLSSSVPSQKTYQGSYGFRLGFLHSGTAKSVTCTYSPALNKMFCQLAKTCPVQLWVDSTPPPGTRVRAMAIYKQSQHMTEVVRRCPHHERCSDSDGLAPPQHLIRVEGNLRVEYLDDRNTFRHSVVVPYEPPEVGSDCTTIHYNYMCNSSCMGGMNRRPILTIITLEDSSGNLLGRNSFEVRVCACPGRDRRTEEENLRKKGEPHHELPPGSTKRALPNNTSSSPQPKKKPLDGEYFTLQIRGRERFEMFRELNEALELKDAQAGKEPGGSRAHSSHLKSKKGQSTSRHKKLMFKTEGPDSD

## Kaposi's sarcoma-associated herpesvirus latency-associated nuclear antigen 2 (LANA2) (from UniProt F5HIC6 1-566)
  inhibition of doxorubicin-induced (endogenous p53) activation of the pG13-Luc reporter in U2OS cells: 57%
  inhibition of p53 activation of the pG13-Luc reporter in SAOS-2 cells: 87%
  subdiploid (apoptotic) fraction of SAOS-2 cells expressing p53 with LANA2, propidium iodide flow cytometry: 10.8%
